Laboratory results published in patent US20220073643A1 (NANJING GENSCRIPT BIOTECH, published 2022).

Biological target: human Claudin18.2 (human)
Assay: cell-based or functional assay

Row | CDC % Relative activity | CDC EC50 | Binder
1 | 135% | 1.42 µg/mL | 201F4H6 (antibody, V domains shown) VH: QVQLKESGPGLVAPSQSLSITCTVSGFSLTSYGVSWVRQPPGKGLECLGVIWAGGNTNYNSALMSRLSISKDKSKSQVFLKMNSLQTDDTAMYYCARVYYGNAMDYWGQGTSVTVSS VL: DIVMTQSPSSLTVTAGEKVTMSCKSSQSLLNSGNQKSYLTWYQQRPGQPPKLLIYWASTRESGVPDRFTGSGSGTDFTLTISSVQAEDLAVYFCQNVYFFPFTFGSGTKLETK
2 | 84.5% | 2.27 µg/mL | 200A4H8 (antibody, V domains shown) VH: QVQLKQSGPGLVQPSQSLSITCTVSGFSLTRYGVHWVRQSPGKGLEWLGVIWSGGNTDYNAAFISRLNIRKDNSKSQVFFKMNSLKPNDTAIYYCARAAYFGNSFDYWGQGTTLTVSS VL: DIVMTQSPSSLPVTAGEKVTMSCKSSQSLLNSGNQKNYLTWYQQKPGQPPKLLIYWASTRDSGVPDRFTGSGSGTDFTLTISSVQAEDLAVYYCQNNYIYPLTFGAGTKLELK
3 | 300% | 0.872 µg/mL | 410A9A9 (antibody, V domains shown) VH: DVQLVESGGGLVQPGGSRKLSCAASGFTFSSFGMHWVRQAPEKGLEWVAYISSGSSPIYYADTVKGRFTISRDNPKNTLFLQMTSLRSEDTAMYFCATFYYGNSFAYWGQGTLVTVSA VL: DIVMTQSPSSLTVTAGEKVTMSCKSSQTLLNSGNQKNYLTWYQQKSGQPPKLLIYWASTRESGVPDRFTGSGSGTDFTLTISSVQAEDLAVYYCQNAYSYPVTFGSGTKVELK
4 | 82.2% | 3.31 µg/mL | 411G3E10 (antibody, V domains shown) VH: DVQLVESGGGLVQPGGSRKLSCAASGFTFSGFGMHWIRQTPEKGLEWVAYISSGSRPIYYADTVKGRFTISRDNPKNTLFLQMTSLRSEDTAMYFCARFYYGNSFDHWGQGTLVTVSA VL: DIVMTQSPSFLTVTAGEKVTMNCRSSQSLLNSGNQKNYLTWYQQKPGQPPKLLIYWASTRESGVPDRFTGSGSGTDFTLTISSVQAEDLALYYCQNAYSFPLTFGAGTKLELK
5 | 23.9% | 10.9 µg/mL | 407A8G10 (antibody, V domains shown) VH: DVQLVESGGGLVQPGGSRKLSCAASGFTFSGFGMHWIRQTPEKGLEWVAYISSGSRPIYYADTVKGRFTISRDNPKNTLFLQMTSLRSEDTAMYFCARFYYGNSFDHWGQGTLVTVSA VL: DIVMTQSPSFLTVTAGEKVTMSCRSSQSLLNSGNQRNYLTWYQQKPGQPPKLLIYWASTRESGVPDRFTGSGSGTDFALTISSVQAEDLALYYCQNAYSFPLTFGAGTKLELK
6 | 87.9% | 2.97 µg/mL | 410D9G2 (antibody, V domains shown) VH: DVQLVESGGGLVQPGGSRKLSCAASGFTFSGFGMHWIRQTPEKGLEWVAYISSGSRPIYYADTVQGRFTISRDNPKNTLFLQMTSLRSEDTAMYFCARFYYGNSFDHWGQGTLVTVSS VL: DIVMTQSPSFLTVTAGEKVTMSCKSSQSLLNSGNQKNYLTWYQQKPGQPPKLLIYWASTRESGVPDRFTGSGSGTDFTLTISSVQAEDLALYYCQNAYSFPLTFGAGTKLELK
7 | 10.4% | 26.3 µg/mL | 413B1C9 (antibody, V domains shown) VH: DVQLVESGGGLVQPGGSRKLSCAASGFTFSSFGMHWVRQAPEKGLEWVAYISSGSSPIYYADTVKGRFTISRDNPKNTLFLQMTSLRSEDTAMYFCARFYYGNSFDHWGQGTLVTVSA VL: DIVMTQSPSSLTVTTGEKVSMSCKSSQSLFNRGNQKSYLTWYQQKPGQPPKLLIYWASTRESGVPDRFTGSGSGTDFTLTISSVQAEDLAVYYCQNNYIYPLTFGAGTKLELK
8 | 33.5% | 7.78 µg/mL | 409D1A7 (antibody, V domains shown) VH: DVQLVESGGGLVQPGGSRKLSCAASGFTFSGFGMHWIRQTPEKGLEWVAYISSGSRPIYYADTVKGRFTISRDNPKNTLFLHMTSLRSEDTAMYFCARFYYGNSFDHWGQGTLVTVSA VL: DIVMTQSPSFLTVTAGEKVTMNCKSSQSLLNSGNQRNYLTWYQQKPGQPPKLLIYWASTRESGVPDRFTGSGSGTDFTLTISSVQAEDLALYYCQNAYSFPLTFGAGTKLELN
9 | 755% | 0.346 µg/mL | 410H6H3 (antibody, V domains shown) VH: DVLLVESGGGLVQPGGSRKLSCAASGFTFSSSGMHWVRQAPEKGLEWVAYISSGSNTIYYADTLKGRFTISRDNPKNTLFLQMTSLRSEDTAMYYCARIYYGNSFVYWGQGTLVTVSA VL: DIVMTQSPSSLTVTAGEKVIMSCKSSQSLLNSGNQKNYLTWYQQKPGQPPKMLIYWASTRESGVPDRFRGSGSGTDFTLTISSVQAEDLAVYYCQNNYYYPLTFGTGTKLALK
10 | 28.5% | 9.56 µg/mL | 411G12G1 (antibody, V domains shown) VH: DVQLVESGGGLVQPGGSRKLSCAASGFTFSGFGMHWIRQAPEKGLEWVAYISSGSRPIYYADTVKGRFTISRDNPKNTLFLQMTSLRSEDTAMYFCARFYYGNSFDHWGQGTLVTVSA VL: DIVMTQSPSFLTVTAGEKVTMSCKSSQSLLNSGNQKNYLTWYQQKPGQPPKLLIYWASTRESGVPDRFTGSGSGTDFTLTISSVQAEDLAVYYCQNDYSFPLTFGAGTKLELK
11 | 594% | 0.458 µg/mL | 414A5F7 (antibody, V domains shown) VH: DVQLVESGGGLVQPGGSRKLSCAASGFTFSSFGMHWVRQAPEKGLEWVAYISSGSSPIYYADTVKGRFTISRDNPKNTLFLQMTSLRSEDTAMYFCARIYYGNSFAYWGQGTLVTVSA VL: DIVMTQSPSSLTVTAGEKVAMSCKSSQTLLNSGNQKNYLTWYQQKPGQPPKLLLYWASTRESGVPDRFTGSGSGTDFTLTISSVQAEDLAVYYCQNAYYYPLTFGSGTKLELK
12 | 849% | 0.308 µg/mL | 407D8G1 (antibody, V domains shown) VH: DVQLVESGGGLVQPGGSRKLSCAASGFTFSGFGMHWIRQTPEKGLEWVAYISSGSRPIYYADTVQGRFTISRDNPKNTLFLQMTSLRSEDTAMYFCARFYYGNSFDHWGQGTLVTVSS VL: DIVMTQSPSFLTVTAGEKVTMSCKSSQSLLNSGNQKNYLTWYQQKPGQPPKLLIYWASTRESGVPDRFTGSGSGTDFTLTISSVQAEDLALYYCQNAYSFPLTFGAGTKLELK
13 | 70.9% | 3.84 µg/mL | 413C12F8 (antibody, V domains shown) VH: DVQLVESGGGLVQPGGSRKLSCAASGFTFSGFGVHWIRQTPEKGLEWVAYIGSGSRPIYYADTVKGRFTISRDNPKNTLFLQMTSLRSEDTAMYFCARFYYGNSFDHWGQGTLVTVSA VL: DIVMTQSPSFLTVTAGEKVTMNCRSSQSLLNSGNQKNYLTWYQQRPGQPPKLLIYWASTRESGVPDRFTGSGSGTDFTLTISSVQAEDLALYYCQNAYSFPLTFGAGTKLELK
14 | 143% | 1.83 µg/mL | 407H12E6 (antibody, V domains shown) VH: DVQLVESGGGLVQPGGSRKLSCAASGFTVSSFGMHWVRQAPEKGLEWVAYISSGSSPIYYADTVKGRFTISRDNPKNTLFLQMTSLRSEDTAIYFCARFYYGNSFDHWGQGTLVTVSA VL: DIVMTQSPSSLTVTTGEKVTMSCKSSQSLLNSGNQKNYLTWYQQKPGQSPKLLIYWASTRESGVPDRFTGSGSGTDFTLTISSVQTEDLAVYFCQNNYFFPLTFGAGTKLELK
15 | 577% | 0.472 µg/mL | 412B6E4 (antibody, V domains shown) VH: DVQLVESGGGLVQPGGSRKLSCAASGFTFSSFGVHWVRQAPEKGLEWVAYISSGSSTIYYAHSVKGRFTISRDNPKNTLFLQMTSLGSEDTATYYCARFYYGNSFAYWGQGTLVTVSA VL: DIVMTQSPSSLTVTAGEKVTMSCKSSQSLLNSGNQKNYLTWYQQKPGQPPKMLIYWASTRESGVPDRFTGSGSGTDFTLTISSVQAEDLAVYYCQNAYTYPLTFGAGTRLELK
16 | 68.3% | 3.98 µg/mL | 411B4G4 (antibody, V domains shown) VH: DVQLVESGGGLVQPGGSRKLSCAASGFTFSGFGLHWIRQTPEKGLEWVAYISSGSRPIYYADTVKGRFTISRDNPKNTLFLQMTSLRSEDTAMYFCARFYYGNSFDHWGQGTLVTVSA VL: DIVMTQSPSFLTVTAGEKVTMSCRSSQSLLNSGNQRNYLTWYQQKPGQPPKLLIYWASTRESGVPDRFTGSGSGTDFTLTISSVQAEDLALYYCQNAYSFPLTFGAGTKLELK
17 | 60.4% | 4.32 µg/mL | 407E11H8 (antibody, V domains shown) VH: DVQLVESGGGLVQPGGSRKLSCAASGFTFSDFGMHWIRQTPEKGLEWVAYISSGSRPIYYADTVKGRFTISRDNPKNTLFLQMTSLRSEDTAMYFCVRFYFGNSFDHWGQGTLVTVSA VL: DIVMTQSPSFLTVTAGEKVTMTCRSSQNLLNSGNLKNYLTWYQQKPGQPPKLLISWASTRESGVPDRFTGSGSGTDFTLTISSVQPEDLALYYCQNAYSFPLTFGAGTKLELK
18 | 55.6% | 4.7 µg/mL | 409G10G6 (antibody, V domains shown) VH: DVQLVESGGGLVQPGGSRKLSCAASGFTFSGFGMHWIRQTPEKGLEWVAYISSDSRPIYYADTVKGRFTISRDNPKNTLFLQMTSLRSEDTAMYFCGRFYYGNSFDHWGQGTLVTVSA VL: DIVMTQSPSFLTVTAGEKVTLSCRSSQSLLNSGNQRNYLTWYQQKPGQPPKLLIYWASTRESGVPDRFTGSGSGTDFTLTISSVQAEDRALYYCQNAYSFPLTFGTGTKLELR
19 | 109% | 2.5 µg/mL | 411A6E3 (antibody, V domains shown) VH: DVQLVESGGGLVQPGGSRKLSCAASGFTFSDFGMHWIRQTPEKGLEWVAYISSGSRPIYYADTVKGRFTISRDNPKNTLFLQMTSLRSEDTAMYFCVRFYFGNSFDHWGQGTLVTVSA VL: DIVMTQSPSFLTVTAGEKVTMTCRSSQNLLNSGNLKNYLTWYQQKPGQPPKLLISWASTRESGVPDRFTGSGSGTDFTLTISSVQPEDLALYYCQNAYSFPLTFGAGTKLELK
20 | 136% | 1.93 µg/mL | 406G3C4 (antibody, V domains shown) VH: EIQLQQSGPELMKPGASVRISCKASGYSFISYYIYWVKQSHGKGLEWIGYIDPFNGNTNYNQKFKGKATLTVDRSSSTAYIHLNSLTSEDSAVYYCAIVNGYGRGAMDYWGQGTSVTVSS VL: QIVLTQSPAIMSASPGEKVTMTCSASSSISYMHWYQQKSGTSPKRWIYDTSKLASGVPARFSGSGSGTSYSLTISSMEAEDAATYYCQQWSSNPLTFGDGTKLELK
